Test results reported in publication PMC12576452.

Molecular target: HBV-S/preS1^16-42 antigen, untagged, produced in P. purpureum (Hepatitis B virus) (UniProt P03138)
Assay: SDS-PAGE under native, non-reducing (-DTT) and reducing (+DTT) conditions with western blot; lysates of freeze-dried algal biomass; bands of monomers, dimers and oligomers detected with anti-preS1 antibodies; disulfide-linked

For “HBV-S/preS1^16-42 antigen, untagged, produced in P. purpureum (from UniProt P03138 16-42)”, the stoichiometry N was 2.
